Assay: soluble on expression in E. coli; label from the status in PepcDB or PDB records

| Sequence | soluble on expression in E. coli |
| --- | --- |
| MVNVRGPVLEVDDPKSVETSHGTSQLAEVVIRPERGAASPTTVTLWGKWTETVEYLAVGMELLATDLDERTFDGDTQYSTTGESAVVVEPDFLVDVTDIRGWVQCPRMYYLNKLTGLPLKYPVLKGTVVHEVFGDLLRGRDLESSIESRVAEAALDIGLLGETADAVADDVRQNAAAIQGWLQQGRFGEDSWRSEQTLISERFGIKGRADAVRRGMPVELKTGKNLKRSPRFQDKVQAACYGLLLADDIADPPDTGTLLYTKNSALDRSEESGDLSPAKEFSIGPGFLKYVLRVRNEIAAAEYDMSVPTGFEADANCDYCFEQDTCMVVSGRLDQESKAGQLGEPLPEPERAYFERLYRAIEEERREVHAEYRKLWEQSAAERADDDRALVDLDPLGREPLDGGRWALSARRTSDAVSKIREGDRVLASDGHPTQGTAELATVRHLDDEIVVVADEPFELRRIDVYPSELGVDRQLTALHDAVLRGDPDRKDVLFGRREPSFVGDHRPIIDNNESQNEAVNRALAAEDFALIHGPPGTGKTYTLAQTVQALVARGDRVLLSAFTNRAVDNAIEALEAQGFTDVLRWGSESGVRDDMQSYRFDRTGDPRERAAALRDAQVVAATTAACGSRALKQQQFDVAVIDEAGQLTEPGTFLATNRADRFVLVGDHEQLPPVVRAENDLQTSLFEQLIDDYPDAAVMLDRQYRMSQRIQYFASREFYDGQLRPANAEVASQRLADLDGVDVSTLPSALRDAVSFVDPGLEHHHHHH | not soluble |
| MPEQLNTRVEDCFQLAESFFKRPFKRPVVSLKLRGQKAGVAHLHENLLRFNPQLYRENTEDFLKQTVAHEVAHLIAHQLFGERIQPHGEEWQLIMRGVYELPPNRCHTYDVKRRSVTRYIYRCPCAESDFPFSAQRHKLVAQGRRYLCRRCRQTLVYSGETRVELEHHHHHH | not soluble |
| MSLEKSGFIVHQKFDSILQLEDFDSLDRALKESESYYQKLPSNWKTQVRKTSYHKNQMLNSLKILKKILREKNPESRKIQFQNSFLLLETKDEALGRITAYYEVIIEGRFYPEGDFIYPVLETPSDLIVKKDGNKKSVGKIINEVFVPYETREELSHTSVWKKRSKAIVYVKIVDLHLAQLEGSAFVKVPDHIPFRITYSEDNGKEYQSPAESLKGICSSLIPSDLKSCILKYPKEVEMAILKNPRYIFFKLESSAPRGSGGIELIPKRSVAMDPGIPLGIPVLISFESSVLTEKNRIVFVHDRGSQITGHGRLDYFLGTGETAEYQAGKINTQGKIFLILPKIKNEGHHHHHH | soluble |
| MRGSHHHHHHGMASMTGGQQMGRDLYDDDDKDRWIRTGGYQPTLWDFSTIQSFDSEYKEEKHLMRAAGMIDQVKMMLQEEVDSIRRLELIDDLRRLGISCHFEREIVEILNSKYYTNNEIDERDLYSTALRFRLLRQYDFSVSQEVFDCFKNAKGTDFKPSLVDDTRGLLQLYEASFLSAQGEETLRLARDFATKFLQKRVLVDKDINLLSSIERALELPTHWRVQMPNARSFIDAYKRRPDMNPTVLELAKLDFNMVQAQFQQELKEASRWWNSTGLVHELPFVRDRIVECYYWTTGVVERRQHGYERIMLTKINALVTTIDDVFDIYGTLEELQLFTTAIQRWDIESMKQLPPYMQICYLALFNFVNEMAYDTLRDKGFDSTPYLRKVWVGLIESYLIEAKWYYKGHKPSLEEYMKNSWISIGGIPILSHLFFRLTDSIEEEAAESMHKYHDIVRASCTILRLADDMGTSLDEVERGDVPKSVQCYMNEKNASEEEAREHVRSLIDQTWKMMNKEMMTSSFSKYFVEVSANLARMAQWIYQHESDGFGMQHSLVNKMLRDLLFHRYE | soluble |
| NGQSDVKHIGILQYVEHPSLTATRKGFIKELAKEGYKDGKNIKIEYKNAQGDQSNIQSISEKLIKDNKLVLGIATPAAQSLTTVSTETPILFTAVTDPVSAELVKSMKKPEGLATGTSDMSPIKKQVSLLRKVMPKVKRVGIMYTTSERNSEVQVKQAKKIFQEAGIKTSVKGISSTNDVQDTAKSLMSKTEVIFVPTDNIIASSVTLLGNLSKELKVPVVGGSADMVPSGLLFSYGADYEALGRQTARQAVKILKGKDVAKVPSEYPQNLKVVVNEDMAKELGIDVSSIK | not soluble |
| MAHHHHHHMSSLDSVREDILDVFHIFDEDGSGSITMQELKRAIYTITGIRISRIDLSILVRTCKEEMLKESARKSEAGANVAGKAGEKLWTPEPESEVNTVDPQLFAAVVLKTLNRRTQEQELLFTFRLLEDKDYPGFITKDSLKRASADIDEHLTDQEVNEMFDKLVTGVSAAAIDFVTFSSLMETLRKSI | soluble |
| MLFGQSVFQSVVERLKQEKEEEGTEPSPPAGHRIAGFSSGFVVDTHIEAPQPANGNLDAYLAFLADPAPPPESQTEPEPEPMPAHLEKTALADVSAELAIQETDTVATLAEKRRAFARLNHPDRVKPQFRHNATLRMTAANLLIDQALRMLRTREHFR | not soluble |

From the DeepSol protein solubility set
